Experimental data: US20040248232

Legend:
[1] = tested on: APP substrate Ser-Glu-Val-Lys-Met-Asp-Ala-Glu-Phe
[2] = tested on: Z★Val-Lys-Met-MCA substrate

Chain of Peak I β-secretase endoprotease activity from bovine chromaffin vesicles, identified as bovine cathepsin L (27 kDa cysteine protease band) (chain, as listed by the source): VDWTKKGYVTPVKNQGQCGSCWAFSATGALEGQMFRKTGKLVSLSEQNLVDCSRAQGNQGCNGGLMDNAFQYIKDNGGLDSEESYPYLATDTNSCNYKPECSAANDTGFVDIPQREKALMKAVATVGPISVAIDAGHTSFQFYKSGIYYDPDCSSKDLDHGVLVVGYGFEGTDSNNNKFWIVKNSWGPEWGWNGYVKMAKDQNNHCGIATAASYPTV

Substance | cleavage of the APP substrate, products analyzed by EMS [1] | fluorescent MCA released by cleavage of the substrate [2] | cleavage of the Z★Val-Lys-Met-MCA substrate, products analyzed by EMS [2]
Peak II-A β-secretase endoprotease activity from bovine chromaffin vesicles, identified as bovine cathepsin B (31 kDa cysteine protease band) | the majority of the Peaks II-A and II-B activities cleaved the Met-Asp bond | the majority of the endoprotease activity in Peak II-A and Peak II-B cleaved the β-secretase scissile bond | –
Peak II-B β-secretase endoprotease activity from bovine chromaffin vesicles, identified as bovine cathepsin B (31 kDa cysteine protease band) | the majority of the Peaks II-A and II-B activities cleaved the Met-Asp bond | the majority of the endoprotease activity in Peak II-A and Peak II-B cleaved the β-secretase scissile bond | –
Peak I β-secretase endoprotease activity from bovine chromaffin vesicles, identified as bovine cathepsin L (27 kDa cysteine protease band) | the majority of Peak I activity cleaved the Lys-Met bond | – | the Peak I activity cleaved the Lys-Met bond in the Z★Val-Lys-Met-MCA substrate
